Results on 23 molecules are retold here after PMC3074162.

One may read the stoichiometry N as the number of molecules, sites or subunits per partner or assembly. The Kd is the equilibrium constant for the complex coming apart. A low value points to higher affinity.

Series [1] deals with ParB 65–139 (C-terminal DNA-binding RHH domain of pCXC100 ParB) (Leifsonia xyli subsp. cynodontis (plasmid pCXC100)) (UniProt Q6ABV9). As to the kind of experiment: crystal structure.
In series [2] the target is T1, ParB 65-139 (RHH domain) (Leifsonia xyli subsp. cynodontis …, UniProt Q6EEF9 65-139).
T1 sequence: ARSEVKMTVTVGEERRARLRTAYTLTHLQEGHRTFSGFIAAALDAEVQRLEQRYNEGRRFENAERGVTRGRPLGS
As to the kind of experiment: ITC. For orientation: Isothermal titration calorimetry measures the heat released or taken up as one component is titrated into another.

The target of series [3] is T1, ParB 65-139 (RHH domain). As to the kind of experiment: EMSA. Background: A gel shift assay detects complexes by their altered migration in electrophoresis.
Series [4] has as its target T1, ParB 65-139 (RHH domain). Nature of the series: EMSA. This is another data set of the same source.
Series [5] concerns the target T1, ParB 65-139 (RHH domain). Nature of the series: ITC. This is another data set of the same source.
For series [6], the target named is T1, ParB 65-139 (RHH domain). Nature of the series: ITC. The source holds these as a separate data set.
For series [7], the target named is T1, ParB 65-139 (RHH domain). As to the kind of experiment: EMSA. The source holds these as a separate data set.
The target in series [8] is T1, ParB 65-139 (RHH domain). As to the kind of experiment: ITC. The source holds these as a separate data set.
Series [9] has as its target T1, ParB 65-139 (RHH domain). Nature of the series: EMSA. This is another data set of the same source.
In series [10] the target is T1, ParB 65-139 (RHH domain). Nature of the series: EMSA. This is another data set of the same source.
Series [11] concerns the target T1, ParB 65-139 (RHH domain). As to the kind of experiment: ITC. This is another data set of the same source.
Series [12] concerns the target T1, ParB 65-139 (RHH domain). As to the kind of experiment: EMSA. This is another data set of the same source.
In series [13] the target is T1, ParB 65-139 (RHH domain). As to the kind of experiment: EMSA. This is another data set of the same source.
The target in series [14] is T1, ParB 65-139 (RHH domain). As to the kind of experiment: ITC. This is another data set of the same source.
The target of series [15] is T1, ParB 65-139 (RHH domain). As to the kind of experiment: ITC. The source holds these as a separate data set.

In the case of “ParB 65–139 (C-terminal DNA-binding RHH domain of pCXC100 ParB) (from UniProt Q6ABV9 65-139) (domain or fragment)”, the stoichiometry N in series [1] was found to be 2.

B1: R11-18 (dsDNA)
DNA 1: AGAACACGCCGAACGGCC
DNA 2: GGCCGTTCGGCGTGTTCT
Take B1: the binding result with ParB 65-139 (RHH domain) [2] was “no binding”.

B2: R2R3-18 (dsDNA)
DNA 1: AGTAGGAATAGGTGGAAA
DNA 2: TTTCCACCTATTCCTACT
B2: in the series with ParB 65-139 (RHH domain) [3], the binding result is “binds”.

B3: 1R6'-18 (dsDNA)
DNA 1: GGGTAAGATGGGTAAGAT
DNA 2: ATCTTACCCATCTTACCC
Take B3: in the series with ParB 65-139 (RHH domain) [4], the binding result is recorded as “binds”.

B4: R4-18 (dsDNA)
DNA 1: GGAAAAGCCAGAAACAGT
DNA 2: ACTGTTTCTGGCTTTTCC
Take B4: the Kd was 87 ± 59 nM with ParB 65-139 (RHH domain) [5] and 60 ± 12 nM with ParB 65-139 (RHH domain) [6].

B5: R4-18-1 (dsDNA)
DNA 1: TGGAAAAGCCAGAAACAG
DNA 2: CTGTTTCTGGCTTTTCCA
B5: in the series with ParB 65-139 (RHH domain) [7], the binding result is on record as “binds”.

B6: R3-18-18G (dsDNA)
DNA 1: GGAATAGGTGGAAAAGCG
DNA 2: CGCTTTTCCACCTATTCC
As to B6, the affinity with ParB 65-139 (RHH domain) [8], expressed as Kd, was 70 ± 17 nM.

B7: 2R3'-27 (dsDNA)
DNA 1: GGAAAAGGTGGAAAAGGTGGAAAAGGT
DNA 2: ACCTTTTCCACCTTTTCCACCTTTTCC
For the molecule B7, the Kd with ParB 65-139 (RHH domain) [9] worked out at 112 nM. That is a sub-micromolar value.

B8: R4-18+4 (dsDNA)
DNA 1: AAGCCAGAAACAGTGGGA
DNA 2: TCCCACTGTTTCTGGCTT
B8: the binding result with ParB 65-139 (RHH domain) [10] is “binds”.

B9: R4-18-2 (dsDNA)
DNA 1: GTGGAAAAGCCAGAAACA
DNA 2: TGTTTCTGGCTTTTCCAC
In the case of B9, the binding result in the series with ParB 65-139 (RHH domain) [10] was “binds”.

B10: R9-18 (dsDNA)
DNA 1: GGAATTGTTTGCTACGGT
DNA 2: ACCGTAGCAAACAATTCC
For B10, the Kd is 17 ± 6 nM with ParB 65-139 (RHH domain) [11] and 11 ± 9 nM with ParB 65-139 (RHH domain) [5].

B11: R4-18-3 (dsDNA)
DNA 1: GGTGGAAAAGCCAGAAAC
DNA 2: GTTTCTGGCTTTTCCACC
Take B11: in the series with ParB 65-139 (RHH domain) [10], the binding result was “binds”.

B12: 2R6'-27 (dsDNA)
DNA 1: GGGTAAGATGGGTAAGATGGGTAAGAT
DNA 2: ATCTTACCCATCTTACCCATCTTACCC
In the series with ParB 65-139 (RHH domain) [12], B12 registered a Kd of 877 nM.

B13: R4-18+3 (dsDNA)
DNA 1: AAAGCCAGAAACAGTGGG
DNA 2: CCCACTGTTTCTGGCTTT
Regarding B13, the binding result in the series with ParB 65-139 (RHH domain) [10] is recorded as “binds”.

B14: R4-14 (dsDNA)
DNA 1: AAAAGCCAGAAACA
DNA 2: TGTTTCTGGCTTTT
B14: the binding result with ParB 65-139 (RHH domain) [8] was “no binding”.

B15: R4-18+1 (dsDNA)
DNA 1: GAAAAGCCAGAAACAGTG
DNA 2: CACTGTTTCTGGCTTTTC
With B15, the binding result in the series with ParB 65-139 (RHH domain) [7] was “binds”.

B16: R2R3-27 (dsDNA)
DNA 1: AGTAAAGTAGGAATAGGTGGAAAAGCC
DNA 2: GGCTTTTCCACCTATTCCTACTTTACT
In the case of B16, the binding result with ParB 65-139 (RHH domain) [13] is “binds”.

B17: R3-18-10A (dsDNA)
DNA 1: GGAATAGGTAGAAAAGCC
DNA 2: GGCTTTTCTACCTATTCC
Molecule B17 registered a Kd with ParB 65-139 (RHH domain) [14] of 30 ± 10 nM.

B18: R10-18 (dsDNA)
DNA 1: TGCTACGGTAGAACACGC
DNA 2: GCGTGTTCTACCGTAGCA
Consider B18, for which the binding result with ParB 65-139 (RHH domain) [2] is given as “no binding”.

B19: 1R3'-18 (dsDNA)
DNA 1: GGAAAAGGTGGAAAAGGT
DNA 2: ACCTTTTCCACCTTTTCC
As for B19, the binding result with ParB 65-139 (RHH domain) [4] was “binds”.

B20: R0-18 (dsDNA)
DNA 1: TGCTCGATCTGGCTATCC
DNA 2: GGATAGCCAGATCGAGCA
For B20, the binding result in the series with ParB 65-139 (RHH domain) [2] is “no binding”.

B21: R8-18 (dsDNA)
DNA 1: GGAAAAGCTGGAATTGTT
DNA 2: AACAATTCCAGCTTTTCC
As to B21, the Kd with ParB 65-139 (RHH domain) [8] was 56 ± 12 nM.

B22: R3-18 (dsDNA)
DNA 1: GGAATAGGTGGAAAAGCC
DNA 2: GGCTTTTCCACCTATTCC
With B22, the dissociation constant (Kd) was 31 ± 12 nM in the series with ParB 65-139 (RHH domain) [5], 37 ± 10 nM with ParB 65-139 (RHH domain) [6] and 30 ± 10 nM with ParB 65-139 (RHH domain) [15].
